The test concerns the target hPCSK9 (Sino Biologicals, China) (human) (UniProt Q8NBP7). Description: cell-based or functional assay.

Consider Alirocumab (antibody), for which the hepatic LDL-R expression, Percentage of baseline (%), mouse hPCSK9 challenge, inhibitor 22 nmol/kg was 157%.
